# Experimental data taken from PMC12241658.
# “And” between values parts separate entries of the source, which are not always exact repeats. Equal values may be shown once.
# Tests used:
# [1] = target: recombinant human αβ hemoglobin, 6x His tag on the N-terminus of the α subunit (αβHb dimer) (human) (UniProt P69905); experiment: BLI
# [2] = target: recombinant human adult hemoglobin (αβHb), αβ dimer (human) (UniProt P69905); experiment: BLI
# [3] = target: recombinant human αβ hemoglobin (αβHb dimer) (human) (UniProt P69905); experiment: BLI
# [4] = target: ChuA (E. coli CFT073)
molecule,measurement,setting,value
"ChuA (outer membrane heme transporter, TonB-dependent transporter) from E. coli CFT073 (receptor)",koff,[1],0.0574 s⁻¹ and 0.0449 s⁻¹ and 0.0512 s⁻¹
same,kon,[1],158000 M⁻¹ s⁻¹ and 144000 M⁻¹ s⁻¹ and 173000 M⁻¹ s⁻¹
"ChuA, outer membrane TonB-dependent heme/hemoglobin transporter of E. coli CFT073 (receptor)",Kd,[2],71.5 nM
ChuA (receptor),koff,[3],0.0574 s⁻¹ and 0.0531 s⁻¹
same,kon,[3],144000 M⁻¹ s⁻¹ and 118000 M⁻¹ s⁻¹
recombinant human neuroglobin (natural protein) MERPEPELIRQSWRAVSRSPLEHGTVLFARLFALEPDLLPLFQYNCRQFSSPEDCLSSPEFLDHIRKVMLVIDAAVTNVEDLSSLEEYLASLGRKHRAVGVKLSSFSTVGESLLYMLEKCLGPAFTPATRAAWSQLYGAVVQAMSRGWDGE,"EC50 of the growth of E. coli ΔTBDT:ChuOP in LB liquid medium with 200 µM 2,2'-bipyridine, supplemented with serially diluted neuroglobin (nonlinear regression, three parameters)",[4],826 nM
recombinant human myoglobin (natural protein) MGLSDGEWQLVLNVWGKVEADIPGHGQEVLIRLFKGHPETLEKFDKFKHLKSEDEMKASEDLKKHGATVLTALGGILKKKGHHEAEIKPLAQSHATKHKIPVKYLEFISECIIQVLQSKHPGDFGADAQGAMNKALELFRKDMASNYKELGFQG,"EC50 of the growth of E. coli ΔTBDT:ChuOP in LB liquid medium with 200 µM 2,2'-bipyridine, supplemented with serially diluted myoglobin (nonlinear regression, three parameters)",[4],24200 nM
